Reference: patent US20220332795A1 (ARO BIOTHERAPEUTICS, published 2022)
Changes are numbered by the printed parent chain.

B1: SEQ ID NO 38 (designed binder, not shown: small tags and cut ends)
chain: MLPAPKNLVVSRVTEDSARLSWTAPDAAFDSFPILYLEHTVRSEAIVLTVPGSERSYDLTDLKPGTEYCVPIDGVKGGLRSRPLSAIFTT
notes: FN3 domain, hit of the apical domain panning
B2: SEQ ID NO 37 (designed binder, not shown: small tags and cut ends)
chain: MLPAPKNLVVSRVTEDSARLSWTTPDAAFDSFPIYYWEVTITGEAIYLSVPGSERSYDLTGLKPGTEYPVDIPGVKGGAASPPLSAIFTT
notes: as for B1
B3: SEQ ID NO 39 (designed binder, not shown: small tags and cut ends)
chain: MLPAPKNLVVSRVTEDSARLSWTAPDAAFDSFPIPYTEPPDPGEAIVLTVPGSERSYDLTGLKPGTEYLVTILGVKGGSMSVPLSAIFTT
notes: as for B1
B4: SEQ ID NO 12 (designed binder, not shown: small tags and cut ends)
chain: MLPAPKNLVVSRVTEDSARLSWTAPDAAFDSFFIPYAEPSPTGEAIVLTVPGSERSYDLTGLKPGTEYSVLIHGVKGGHLSDPLSAISTT
notes: as for B1
B5: SEQ ID NO 49 (designed binder, not shown: small tags and cut ends)
chain: B4 chain with F33P, P35A, S40R, T42D, H79D, L80W, D82L, S88F
notes: as for B1
B6: SEQ ID NO 42 (designed binder, not shown: small tags and cut ends)
chain: B4 chain with F33L, P39T, T42S, H79D, L80Y, D82E, S88F
notes: as for B1
B7: SEQ ID NO 99 (designed binder, not shown: small tags and cut ends)
chain: B4 chain with A86V, S88F
notes: as for B1
B8: SEQ ID NO 44 (designed binder, not shown: small tags and cut ends)
chain: B4 chain with S88V
notes: as for B1
B9: SEQ ID NO 82 (designed binder, not shown: small tags and cut ends)
chain: B4 chain with F33L, P39T, T42S, H79D, L80Y, D82S, S88F
notes: as for B1
B10: SEQ ID NO 57 (designed binder, not shown: small tags and cut ends)
chain: B4 chain with F33A, P39L, P41R, T42N, S69T, H79C, S88F
notes: as for B1
B11: SEQ ID NO 77 (designed binder, not shown: small tags and cut ends)
chain: B4 chain with F33P, P35A, S40R, T42D, H79L, D82S, S88F
notes: as for B1
B12: SEQ ID NO 68 (designed binder, not shown: small tags and cut ends)
chain: B4 chain with F33I, P39V, S40R, T42D
notes: as for B1
B13: SEQ ID NO 46 (designed binder, not shown: small tags and cut ends)
chain: B4 chain with F33I, P39V, S40R, T42D, H79K, D82L, S88F
notes: as for B1
B14: SEQ ID NO 64 (designed binder, not shown: small tags and cut ends)
chain: B4 chain with F33Y, P35V, S40I, T42N, H79R, L80N, S88F
notes: as for B1
B15: SEQ ID NO 65 (designed binder, not shown: small tags and cut ends)
chain: B4 chain with E15K, F33P, P35A, S40R, T42D, H79L, D82S, S88F
notes: as for B1
B16: SEQ ID NO 83 (designed binder, not shown: small tags and cut ends)
chain: B4 chain with F33P, P35A, S40R, T42D, H79L, D82S
notes: as for B1
B17: SEQ ID NO 40 (designed binder, not shown: small tags and cut ends)
chain: MLPAPKNLVVSRVTEDSARLSWTAPDAAFDSFTIDYWENRCPGEAIVLTVPGSERSYDLTGLKPGTEYCVWISGVKGGYSSWPLSAIFTT
notes: as for B1
B18: SEQ ID NO 1 (designed binder, not shown: small tags and cut ends)
chain: MLPAPKNLVVSRVTEDSARLSWTAPDAAFDSFPITYIEAVVLGEAIVLTVPGSERSYDLTGLKPGTEYPVGISGVKGGHNSMPLSAIFTT
notes: as for B1
B19: SEQ ID NO 19 (designed binder, not shown: small tags and cut ends)
chain: B18 chain with P33A, I37T, V40A, V41L, L42C, G71P, S73N, H79G, N80T, M82G
notes: as for B1
B20: SEQ ID NO 43 (designed binder, not shown: small tags and cut ends)
chain: MLPAPKNLVVSRVTEDSARLSWTAPDAAFDSFMIVYYEYTRFGEAIVLTVPGSERSYDLTGLKPGTEYTVPIDGVKGGGRSSPLSAIFTT
notes: as for B1
B21: SEQ ID NO 34 (designed binder, not shown: small tags and cut ends)
chain: MLPAPKNLVVSRVTEDSARLSWTAPDAAFDSFYITYVELNLAGEAIVLTVPGSERSYDLTGLKPGTEYPVPILGVKGGSLSQPLSAIFTT
notes: as for B1
B22: SEQ ID NO 18 (designed binder, not shown: small tags and cut ends)
chain: MLPAPKNLVVSRVTEDSARLSWTAPDAAFDSFNIMYHEIIYVGEAIVLTVPGSERSYDLTGLKPGTEYPVPIEGVKGGGTSGPLSAIFTT
notes: as for B1
B23: SEQ ID NO 17 (designed binder, not shown: small tags and cut ends)
chain: B22 chain with N33P, M35L, H37T, I39C, I40V, V42R, P69H, E73T, T80G, G82W
notes: as for B1
B24: SEQ ID NO 13 (designed binder, not shown: small tags and cut ends)
chain: B22 chain with N33L, M35A, H37P, I39D, I40G, Y41F, V42R, E73L, T80G
notes: as for B1
B25: SEQ ID NO 33 (designed binder, not shown: small tags and cut ends)
chain: MLPAPKNLVVSRVTEDSARLSWTAPDAAFDSFGIAYVESYWYGEAIVLTVPGSERSYDLTGLKPGTEYNVPIYGVKGGDGSGPLSAIFTT
notes: as for B1
B26: SEQ ID NO 56 (designed binder, not shown: small tags and cut ends)
chain: B21 chain with Y33S, T35G, N40V, A42L, P69D, P71L, L73P, Q82R
notes: as for B1
B27: SEQ ID NO 30 (designed binder, not shown: small tags and cut ends)
chain: B21 chain with Y33I, T35H, L39Q, N40Q, A42I, L73T, S79A, L80C, Q82W
notes: as for B1
B28: SEQ ID NO 72 (designed binder, not shown: small tags and cut ends)
chain: B25 chain with G33T, A35G, V37R, S39W, Y73S, D79L, G80D, G82F
notes: as for B1
B29: SEQ ID NO 88 (designed binder, not shown: small tags and cut ends)
chain: B20 chain with M33P, V35K, Y37R, Y39V, T40L, F42C, D73T, G79F, R80G
notes: as for B1
B30: SEQ ID NO 4 (designed binder, not shown: small tags and cut ends)
chain: MLPAPKNLVVSEVTEDSARLSWQGVARAFDSFLITYRDQIFAGEVIVLTVPGSERSYDLTGLKPGTEYPVWIQGVKGGSPSAPLSAESTT
notes: as for B1
B31: SEQ ID NO 53 (designed binder, not shown: small tags and cut ends)
chain: B30 chain with K6E, D38E
notes: as for B1
B32: SEQ ID NO 36 (designed binder, not shown: small tags and cut ends)
chain: B30 chain with D38E, L48P, W71P, Q73A, S79G, E87I, S88F
notes: as for B1
B33: SEQ ID NO 94 (designed binder, not shown: small tags and cut ends)
chain: B30 chain with D38E, E87I, S88F
notes: as for B1
B34: SEQ ID NO 84 (designed binder, not shown: small tags and cut ends)
chain: MLPAPKNLVVSRVTEDSARLSWQGVARAFDSFSILYLELTPKGEAIVLTVPGSERSYDLTGLKPGTEYPVWIQGVKGGSPSAPLSAEFTT
notes: as for B1
B35: SEQ ID NO 28 (designed binder, not shown: small tags and cut ends)
chain: B30 chain with A26V, D38E, S88F
notes: as for B1
B36: SEQ ID NO 102 (designed binder, not shown: small tags and cut ends)
chain: B30 chain with E12R, D38E, S88F
notes: as for B1
B37: SEQ ID NO 5 (designed binder, not shown: small tags and cut ends)
chain: B30 chain with D38E, P69W, W71Y, Q73W, S79K, A82F, S85R, E87G, S88F
notes: as for B1
B38: SEQ ID NO 70 (designed binder, not shown: small tags and cut ends)
chain: B30 chain with E12R, D38E, S79D, P80L, A82N, E87I, S88F
notes: as for B1
B39: SEQ ID NO 41 (designed binder, not shown: small tags and cut ends)
chain: B30 chain with E12R, D38E, S79H, P80L, A82D, E87I, S88V
notes: as for B1
B40: SEQ ID NO 81 (designed binder, not shown: small tags and cut ends)
chain: B34 chain with S33L, L35T, L37V, T40R, P41H, K42L
notes: as for B1
B41: SEQ ID NO 7 (designed binder, not shown: small tags and cut ends)
chain: B30 chain with E12D, D38E, S88F
notes: as for B1
B42: SEQ ID NO 15 (designed binder, not shown: small tags and cut ends)
chain: B30 chain with E12R, D38E, Y68C, S88F
notes: as for B1
B43: SEQ ID NO 32 (designed binder, not shown: small tags and cut ends)
chain: B30 chain with E12R, D38E, P69G, W71T, Q73A, S79W, P80R, A82K, S85N
notes: as for B1
B44: SEQ ID NO 73 (designed binder, not shown: small tags and cut ends)
chain: B30 chain with D38E
notes: as for B1
B45: SEQ ID NO 47 (designed binder, not shown: small tags and cut ends)
chain: B20 chain with M33G, Y37L, Y39M, T40M, R41V, F42T, T69D, D73L, G79T, S82V
notes: as for B1

Each binder was assayed against T1, recombinant biotinylated CD71 extracellular domain (Sino Biologics) with an N-terminal 6His tag (human, UniProt P02786 89-760, biotinylated (site not stated)) (assay: primary solution ELISA screen).
T1 construct: extracellular domain; also called hCD71; huCD71 ECD
T1 sequence (P02786 other isoform, or with tags, fused parts or gaps): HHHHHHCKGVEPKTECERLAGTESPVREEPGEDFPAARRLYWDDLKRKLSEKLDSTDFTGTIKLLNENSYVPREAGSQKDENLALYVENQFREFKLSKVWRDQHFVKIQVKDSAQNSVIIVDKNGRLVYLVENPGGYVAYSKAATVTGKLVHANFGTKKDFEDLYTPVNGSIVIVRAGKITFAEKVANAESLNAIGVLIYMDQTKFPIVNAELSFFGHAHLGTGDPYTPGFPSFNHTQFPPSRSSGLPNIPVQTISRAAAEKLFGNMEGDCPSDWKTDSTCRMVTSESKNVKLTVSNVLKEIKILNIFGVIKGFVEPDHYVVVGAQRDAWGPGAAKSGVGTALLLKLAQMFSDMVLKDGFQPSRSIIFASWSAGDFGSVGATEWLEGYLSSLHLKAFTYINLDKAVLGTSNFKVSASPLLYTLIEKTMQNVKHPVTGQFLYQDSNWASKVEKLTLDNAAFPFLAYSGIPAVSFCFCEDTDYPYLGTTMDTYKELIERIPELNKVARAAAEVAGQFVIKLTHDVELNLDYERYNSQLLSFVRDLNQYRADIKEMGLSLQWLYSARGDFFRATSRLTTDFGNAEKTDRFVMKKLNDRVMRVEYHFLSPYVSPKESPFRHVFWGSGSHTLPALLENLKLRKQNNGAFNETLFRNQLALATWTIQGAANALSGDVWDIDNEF

RLU [RLU]	Binder
518000	B1
2.95e+06	B2
1.48e+06	B3
1.24e+06	B4
969000	B5
586000	B6
440000	B7
715000	B8
1.56e+06	B9
1.12e+06	B10
739000	B11
521000	B12
1.04e+06	B13
1.31e+06	B14
959000	B15
3.26e+06	B16
223000	B17
1.51e+06	B18
956000	B19
772000	B20
1.58e+06	B21
828000	B22
221000	B23

RLU [RLU]	Binder
1.73e+06	B24
271000	B25
1.92e+06	B26
205000	B27
338000	B28
515000	B29
2.1e+06	B30
1.27e+06	B31
288000	B32
1.02e+06	B33
3.53e+06	B34
383000	B35
444000	B36
1.73e+06	B37
991000	B38
1.37e+06	B39
864000	B40
761000	B41
512000	B42
342000	B43
1.47e+06	B44
1.99e+06	B45

What follows are binders tested against T1, recombinant biotinylated CD71 … (assay: primary solution ELISA screen, signal on hCD71 over HSA).

hCD71:HSA	Binder
63	B1
103	B2
29	B3
25	B4
70	B5
586	B6
45	B7
13	B8
105	B9
29	B10
71	B11
14	B12
127	B13
218	B14
60	B15
29	B16
16	B17
96	B18
53	B19
36	B20
195	B21
79	B22
61	B23

hCD71:HSA	Binder
70	B24
132	B25
99	B26
46	B27
38	B28
21	B29
12	B30
40	B31
60	B32
12	B33
28	B34
28	B35
11	B36
39	B37
10	B38
12	B39
88	B40
29	B41
35	B42
75	B43
73	B44
98	B45
